Laboratory results: the RNAGym collection of RNA variant scans (doi:10.1073/pnas.2313332121)

B1: TPR t1 (parent)
chain: GACCAAUCUGCCCUCAGAGCUCGAGAACAUCUUCGGAUGCAGAGGAGGCAGGCUUCGGUGGCGCGAUAGCGCCAACGUCCUCAACCUCCAAUGCAUCCCACCACAUGAUGAUGCCUGAAGAGCCUUGGUUUUUUG

Variants of: B1
Experiment: polymerase ribozyme fitness, log enrichment relative to wild type (log ratio); higher = more active; in vitro selection for triplet polymerase activity
How it was run: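 A single round of triplicate in vitro selection, including frozen incubation at −7 °C, was applied to PCR-built, transcribed mutant libraries of each subunit of a heterodimeric triplet polymerase ribozyme. Illumina sequencing of input and output libraries retained genotypes with ≥10 input reads and ≥1 read per output. Fitness is the base-2 logarithm of genotype enrichment divided by wild-type enrichment, from inverse-variance-weighted replicate averages.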

| Variant | polymerase ribozyme fitness (log ratio) |
| --- | --- |
| A2U A18G U32C G93U C124G U133G | -2.99 |
| A2U C12G | -1.36 |
| A2U C12A | -3.25 |
| C3A C15A | -3.67 |
| C3A C76G G93A C115G | -5.76 |
| C3A G39U | -2.46 |
| A2G A50C A75G G113U | -3.77 |
| C3A A5G C12A G63U A68G C115G G122A U130G | -6.94 |
| A2C C101A U106A C115U A119G | 0.154 |
| C3U C13U C85U U87A A95C | -2.29 |
| C3G C72A | -1.64 |
| C3G C72U | -2.37 |
| A2G G39U | -1.18 |
| C3G C88G U112G | -2.52 |
| A2U C13A | -3.76 |
| A2G C28U G93C C124G U133G | -2.71 |
| A2U G35U | -6.73 |
| C3A A16U C73G | -3.81 |
| A2C A66U | -2.86 |
| A2U A50G C73U U78A | -3.42 |
| A2U C11G C28U G61A | -2.82 |

| Variant | polymerase ribozyme fitness (log ratio) |
| --- | --- |
| C3A A105G | -4.78 |
| A2U U7A A46C G48A C82A G127C | -4.28 |
| A2C G128U | -2.55 |
| A2U C72G C101G C124A | -2.28 |
| C3U G47A G61A A84C | -0.617 |
| A2U A16G C72A | -3.41 |
| C3U C11U U33A | -4.58 |
| C3A C56A G71A G127U | -3.57 |
| C3A U9G G44A C62A C88G G113A C123G | -4.87 |
| C3U C11G A24G C40U C62G | -3.32 |
| C3A A5C C115A | 1.15 |
| C3A C11U C99U | -4.11 |
| C3U G17U C64U | -3.03 |
| C3A U9C C11A C49G U109A U126G | -6.11 |
| C3U C40G G42U C82U C89U C94U | -3.64 |
| C3A G57C G71U A90U C114A U132C | -2.98 |
| A2U C56A | -2.33 |
| C3A C13U C34A G58C G135U | -4.09 |
| C3U C8A C11A U21A C124G | 1.81 |
| A2C C40U | -2.06 |
| A2U G65A C80G A84G C115U G117A G127U | -5.92 |

| Variant | polymerase ribozyme fitness (log ratio) |
| --- | --- |
| A2C A121G | 0.405 |
| C3U G45A A105U | -3.3 |
| A2G A43G | -2.05 |
| C3U A29C G61U | -2.81 |
| A2C G61A | -1.72 |
| C3U A37U G61A G117A | -1.3 |
| A2U C11U G57U A91U | -4.18 |
| A2U G57C C82U C98U | -3.78 |
| A2U G60A C79U C80A A121G | -5.43 |
| C3A C40G | -2.2 |
| C3U C53A C72G | -1.22 |
| A2C C3A U9A C20U G120U | -0.418 |
| C3A G39A A68G G128U | -4.5 |
| A2G C79A | -0.844 |
| C3G C11A C12U G58C C62U | -4.45 |
| C3U C80G | -5.98 |
| A2G G42A U54G C80A U112A | -6.02 |
| C3U C8G G45U U54A C72U U87C U130A | -1.62 |
| C3A C12G C56G C123U | -0.749 |
| A2C A5U G52U C62A | -4.11 |
| A2G C8G A121U U129G | 0.138 |

| Variant | polymerase ribozyme fitness (log ratio) |
| --- | --- |
| A2C G42A A46G G69U C115G | -4.92 |
| A2U C22G U33C C34A | -5.51 |
| A2C G63C U130A | -2.69 |
| A2U A5C G69A C86U | -6.09 |
| A2G C8G C70G | -2.83 |
| C3U C40U G117U | -3.25 |
| A2C A5C C114G C124A | -3.41 |
| A2G A18G G19C A83C U92A C114A G128C | -3.26 |
| C3A A6G C13U C15G U59C | -3.21 |
| A2G C40U U78A C86U G117A | -3.78 |
| C3U C40G C115A | -1.95 |
| A2G U14C C70U | -2.68 |
| C3U C8U G71U C88U G117C | -4.1 |
| C3G C124A | -0.505 |
| C3U C40U A43G C53U C124U | -1.48 |
| A2C U38G C79G A121C | -2.95 |
| A2G A5G C20A A46C U112G G122U U129C | -5.3 |
| A2G U9G U106G U112C U130A | -0.197 |
| C3U C94U U106C | -0.635 |
| A2U U9G | -1.32 |
